B1: Tyrosine-protein kinase Lck, residues 63 to 120; numbered along this chain, P06239 (parent)
chain: DNLVIALHSYEPSHDGDLGFEKGEQLRILEQSGEWWKAQSLTTGQEGFIPFNFVAKAN

± gives the uncertainty stated by the source.

The variants in this series derive from B1. The series is described as follows: abundance fitness (aPCA) (normalised: wild type 0, dead -1); higher = more abundant; growth selection in yeast, the domain comes from the species named. Particulars: Homo sapiens.
As to D17K, the abundance fitness was 0.051 ± 0.14.
Regarding D17G, the abundance fitness is -0.042 ± 0.067.
With D17M the figure was -0.022 ± 0.12; with D17R, -0.009 ± 0.066; with D17W, -0.083 ± 0.084.
To D17L belongs -0.116 ± 0.082; to D17C, -0.022 ± 0.12.
As for D17T, the abundance fitness is -0.255 ± 0.14.
To D17A belongs -0.006 ± 0.093.
To D17P belongs -0.762 ± 0.15; to D17N, -0.177 ± 0.13; to D17S, -0.045 ± 0.11.
Regarding D17F, the abundance fitness was -0.229 ± 0.3.
To D17V belongs -0.111 ± 0.089; to D17E, 0.063 ± 0.091.
Turning to D17H, the abundance fitness was 0.011 ± 0.16.
With H14L, the abundance fitness is -0.267 ± 0.082.
With H14S the figure was -0.031 ± 0.088; with H14Y, -0.165 ± 0.1; with H14W, -0.328 ± 0.086.
With H14K the figure was 0.072 ± 0.11; with H14D, -0.219 ± 0.14.
Consider H14P, for which the abundance fitness was -0.793 ± 0.19.
To H14F belongs -0.187 ± 0.15; to H14G, -0.059 ± 0.072; to H14Q, -0.079 ± 0.11.
Regarding H14V, the abundance fitness was -0.104 ± 0.071.
Consider H14A, for which the abundance fitness amounted to 0.027 ± 0.077.
To H14E belongs -0.051 ± 0.11.
On to H14N, for which the abundance fitness stood at 0.12 ± 0.14.
For the variant H14R, the abundance fitness is 0.039 ± 0.062.
As for H14C, the abundance fitness is -0.033 ± 0.12.
Turning to H14I, the abundance fitness is -0.118 ± 0.15.
For the variant P12K, the abundance fitness was -0.471 ± 0.12.
With P12N the figure was -0.557 ± 0.22; with P12H, -0.846 ± 0.3; with P12F, -1.08 ± 0.21.
To P12V belongs -0.717 ± 0.11; to P12L, -0.913 ± 0.12.
P12R: the abundance fitness was -0.705 ± 0.082.
Consider P12D, for which the abundance fitness is -0.439 ± 0.27.
Regarding P12Q, the abundance fitness is -1 ± 0.23.
With P12E, the abundance fitness is -0.755 ± 0.1.
Take P12G: the abundance fitness is -0.497 ± 0.09.
In the case of P12T, the abundance fitness was -0.529 ± 0.1.
To P12C belongs -0.387 ± 0.12; to P12S, -0.366 ± 0.085.
As to P12I, the abundance fitness is -0.506 ± 0.16.
For the variant P12Y, the abundance fitness is -0.525 ± 0.16.
On to G23P, for which the abundance fitness is -1.01 ± 0.29.
With G23C the figure was -0.829 ± 0.26; with G23W, -0.648 ± 0.13.
Take G23N: the abundance fitness is -0.066 ± 0.15.
To G23T belongs -0.917 ± 0.23.
With G23V the figure was -1.04 ± 0.12; with G23M, -0.792 ± 0.16.
As to G23D, the abundance fitness is -0.477 ± 0.1.
As for G23E, the abundance fitness is -0.823 ± 0.17.
In the case of G23H, the abundance fitness is -0.397 ± 0.2.
Regarding G23F, the abundance fitness was -0.573 ± 0.18.
With G23Q, the abundance fitness was -0.903 ± 0.2.
As for G23Y, the abundance fitness is -0.655 ± 0.29.
Regarding G23K, the abundance fitness was -0.792 ± 0.2.
With G23S the figure was -0.635 ± 0.094; with G23L, -0.832 ± 0.12.
On to G23I, for which the abundance fitness was -0.79 ± 0.22.
With L18G, the abundance fitness was -0.717 ± 0.098.
With L18D the figure was -0.779 ± 0.12; with L18T, -0.714 ± 0.15; with L18R, -0.86 ± 0.12.
For the variant L18A, the abundance fitness was -0.591 ± 0.086.
Take L18S: the abundance fitness is -0.884 ± 0.12.
Take L18V: the abundance fitness was -0.441 ± 0.076.
With L18W, the abundance fitness was -0.978 ± 0.25.
Regarding L18N, the abundance fitness was -0.722 ± 0.17.
L18F: the abundance fitness is -0.449 ± 0.18.
With L18Y, the abundance fitness is -0.725 ± 0.17.
To L18C belongs -0.898 ± 0.21.
Consider L18I, for which the abundance fitness was -0.176 ± 0.1.
Turning to L18H, the abundance fitness is -0.732 ± 0.16.
As to L18Q, the abundance fitness is -0.876 ± 0.17.
Consider L18E, for which the abundance fitness was -0.757 ± 0.11.
For the variant L18M, the abundance fitness is -0.295 ± 0.11.
With L18K the figure was -0.946 ± 0.31; with L26A, -0.987 ± 0.2.
To L26E belongs -0.596 ± 0.19; to L26Q, -0.572 ± 0.22; to L26P, -0.909 ± 0.24.
In the case of L26R, the abundance fitness was -0.726 ± 0.1.
Regarding L26M, the abundance fitness was -0.126 ± 0.14.
L26N: the abundance fitness is -0.787 ± 0.22.
With L26C the figure was -1.28 ± 0.31; with L26I, -0.648 ± 0.3.
L26G: the abundance fitness was -0.704 ± 0.091.
Turning to L26F, the abundance fitness is -0.28 ± 0.18.
Take L26H: the abundance fitness is -0.728 ± 0.24.
Regarding L26K, the abundance fitness is -0.919 ± 0.3.
Take H8L: the abundance fitness is -0.285 ± 0.083.
With H8D the figure was 0.003 ± 0.13; with H8N, -0.001 ± 0.14.
With H8K the figure was 0.285 ± 0.17; with H8E, -0.096 ± 0.1.
Turning to H8G, the abundance fitness is -0.295 ± 0.08.
To H8S belongs -0.078 ± 0.091; to H8T, -0.012 ± 0.11; to H8I, -0.262 ± 0.11.
Take H8R: the abundance fitness turned out to be 0.034 ± 0.074.
For H8V, the abundance fitness was -0.227 ± 0.085.
Take H8C: the abundance fitness is -0.131 ± 0.11.
To H8Q belongs -0.086 ± 0.13; to H8P, -0.79 ± 0.18; to H8A, -0.067 ± 0.12.
As for K22F, the abundance fitness is -0.603 ± 0.17.
For the variant K22P, the abundance fitness is -0.801 ± 0.18.
To K22L belongs -0.625 ± 0.09; to K22C, -0.303 ± 0.12.
Turning to K22G, the abundance fitness is -0.674 ± 0.086.
Consider K22A, for which the abundance fitness is -0.174 ± 0.086.
Take K22R: the abundance fitness is -0.252 ± 0.074.
Take K22N: the abundance fitness is -0.777 ± 0.26.
With K22T, the abundance fitness is -0.187 ± 0.11.
To K22W belongs -0.928 ± 0.13; to K22M, -0.514 ± 0.13.
As to K22H, the abundance fitness was -0.593 ± 0.2.
In the case of K22Q, the abundance fitness was -0.371 ± 0.13.
With K22I the figure was -0.526 ± 0.21; with L7P, -0.38 ± 0.15.
To L7T belongs -0.224 ± 0.14; to L7R, -0.298 ± 0.084.
As for L7Y, the abundance fitness is -0.54 ± 0.22.
Consider L7Q, for which the abundance fitness was -0.131 ± 0.17.
With L7E the figure was -0.217 ± 0.11; with L7H, -0.429 ± 0.28.
With L7M the figure was -0.097 ± 0.11; with L7F, -0.705 ± 0.17.
As for L7D, the abundance fitness was -0.486 ± 0.13.
To L7N belongs -0.602 ± 0.3; to L7K, -0.232 ± 0.14.
With L7C, the abundance fitness was -0.357 ± 0.11.
On to L7A, for which the abundance fitness is -0.249 ± 0.13.
On to L7S, for which the abundance fitness is -0.21 ± 0.091.
In the case of L7V, the abundance fitness was -0.161 ± 0.073.
To L7I belongs -0.079 ± 0.22; to F20C, -0.541 ± 0.14; to F20D, -0.845 ± 0.2.
With F20G the figure was -0.921 ± 0.087; with F20K, -0.705 ± 0.22; with F20M, -0.293 ± 0.14.
F20H: the abundance fitness is -0.836 ± 0.49.
Take F20V: the abundance fitness is -0.222 ± 0.072.
For F20I, the abundance fitness is -0.47 ± 0.26.
To F20T belongs -0.406 ± 0.16.
For the variant F20R, the abundance fitness was -0.976 ± 0.11.
On to F20P, for which the abundance fitness was -0.818 ± 0.21.
In the case of F20L, the abundance fitness was -0.411 ± 0.11.
In the case of F20W, the abundance fitness was -1.04 ± 0.19.
Take F20A: the abundance fitness was -0.52 ± 0.096.
As for F20S, the abundance fitness was -0.949 ± 0.15.
Turning to F20N, the abundance fitness is -0.7 ± 0.33.
Turning to F20Q, the abundance fitness was -0.825 ± 0.17.
For the variant F20Y, the abundance fitness was -0.756 ± 0.37.
To A6S belongs -0.348 ± 0.088; to A6T, -0.113 ± 0.12; to A6W, -1.2 ± 0.32.
As for A6Q, the abundance fitness was -0.84 ± 0.28.
For the variant A6Y, the abundance fitness is -0.99 ± 0.21.
With A6V, the abundance fitness was -0.556 ± 0.097.

(Values after the Human Domainome abundance scans (Beltran et al. 2025).)
